Data published in patent US20110250165A1.

Tests used:
CXCR4 (Jurkat) (human) [1] = molecular target: CXCR4 (Jurkat) (human) (UniProt P61073); experiment: FACS binding; Jurkat cells, % positive
CF2ThCXCR4 (human) [2] = molecular target: CF2ThCXCR4 (human) (UniProt P61073); experiment: FACS binding; CF2ThCXCR4 cells, MFI
CXCR4 (Jurkat) (human) [3] = molecular target: CXCR4 (Jurkat) (human) (UniProt P61073); experiment: FACS binding; Jurkat cells, MFI
CF2ThCXCR4 (human) [4] = molecular target: CF2ThCXCR4 (human) (UniProt P61073); experiment: FACS binding; CF2ThCXCR4 cells, % positive
[5] = molecular target: 2444b CXCR2/CXCR4 chimera (human) (UniProt P25025); experiment: FACS on 293T cells expressing CXCR4 variants
ΔN31-CXCR4 (human) = ΔN31-CXCR4 (human) (UniProt P61073); experiment: FACS on 293T cells expressing CXCR4 variants
2442 CXCR2/CXCR4 chimera = experiment: FACS on 293T cells expressing CXCR4 variants
4442 CXCR2/CXCR4 chimera = experiment: FACS on 293T cells expressing CXCR4 variants
[6] = molecular target: human CXCR4 (wild type) (human) (UniProt P61073); experiment: FACS on 293T cells expressing CXCR4 variants
ΔN25-CXCR4 (human) = ΔN25-CXCR4 (human) (UniProt P61073); experiment: FACS on 293T cells expressing CXCR4 variants

Chain of CF2ThCXCR4 (human) (P61073 whole entry): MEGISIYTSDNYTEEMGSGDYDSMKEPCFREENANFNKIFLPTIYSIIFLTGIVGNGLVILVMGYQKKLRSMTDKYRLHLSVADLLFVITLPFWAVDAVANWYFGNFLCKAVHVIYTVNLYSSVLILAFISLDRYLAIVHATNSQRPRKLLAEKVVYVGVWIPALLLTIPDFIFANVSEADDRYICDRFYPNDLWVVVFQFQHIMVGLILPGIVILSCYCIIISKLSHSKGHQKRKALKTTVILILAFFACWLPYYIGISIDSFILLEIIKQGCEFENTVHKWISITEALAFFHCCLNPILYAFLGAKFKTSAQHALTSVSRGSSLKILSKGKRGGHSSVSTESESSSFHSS
Chain of CXCR4 (Jurkat) (human) (P61073 whole entry): as above
Chain of human CXCR4 (wild type) (human) (P61073 whole entry): as above
Chain of 2444b CXCR2/CXCR4 chimera (human) (P25025 other isoform, or with tags, fused parts or gaps mutant limits assumed): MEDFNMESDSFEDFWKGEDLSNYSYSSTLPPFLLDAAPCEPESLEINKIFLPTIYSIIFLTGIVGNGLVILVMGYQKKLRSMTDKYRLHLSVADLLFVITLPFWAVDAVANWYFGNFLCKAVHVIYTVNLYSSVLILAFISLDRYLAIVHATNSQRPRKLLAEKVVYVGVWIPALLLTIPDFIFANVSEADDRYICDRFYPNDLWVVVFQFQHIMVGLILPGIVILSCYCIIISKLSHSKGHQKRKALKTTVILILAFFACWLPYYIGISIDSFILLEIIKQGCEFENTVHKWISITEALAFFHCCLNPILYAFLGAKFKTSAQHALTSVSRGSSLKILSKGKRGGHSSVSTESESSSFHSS

Substance	EC50 (CXCR4 (Jurkat) (human) [1]) [µg/mL]	EC50 (CF2ThCXCR4 (human) [2]) [µg/mL]	EC50 (CXCR4 (Jurkat) (human) [3]) [µg/mL]	EC50 (CF2ThCXCR4 (human) [4]) [µg/mL]	binding (+%) [5] [%]	binding (+%) (ΔN31-CXCR4 (human)) [%]	binding (+%) (2442 CXCR2/CXCR4 chimera) [%]	binding (+%) (4442 CXCR2/CXCR4 chimera) [%]	binding (+%) [6] [%]	binding (+%) (ΔN25-CXCR4 (human)) [%]
12G5	0.06	0.7	16.9	0.005						
murine monoclonal antibody 12G5					70.1	55.4	85.8	103	100	69.2
